Target: T1, MAGE-3 protein purified from E. coli (pNB202, pRSET-A, N-terminal His tag)
T1 chain: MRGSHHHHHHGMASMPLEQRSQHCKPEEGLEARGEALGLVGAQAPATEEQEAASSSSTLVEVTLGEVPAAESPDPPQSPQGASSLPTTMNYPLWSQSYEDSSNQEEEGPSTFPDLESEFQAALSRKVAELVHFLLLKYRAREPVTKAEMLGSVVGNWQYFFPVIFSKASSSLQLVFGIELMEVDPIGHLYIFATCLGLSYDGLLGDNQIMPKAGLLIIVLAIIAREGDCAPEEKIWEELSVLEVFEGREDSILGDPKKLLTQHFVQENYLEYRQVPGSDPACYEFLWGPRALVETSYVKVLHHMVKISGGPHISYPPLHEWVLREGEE

B1: pro-caspase-12 (48 kDa) synthesized in vitro, radioactively labeled (protein)
chain: MAARRTHERDPIYKIKGLAKDMLDGVFDDLVEKNVLNGDELLKIGESASFILNKAENLVENFLEKTDMAGKIFAGHIANSQEQLSLQFSNDEDDGPQKICTPSSPSESKRKVEDDEMEVNAGLAHESHLMLTAPHGLQSSEVQDTLKLCPRDQFCKIKTERAKEIYPVMEKEGRTRLALIICNKKFDYLFDRDNADTDILNMQELLENLGYSVVLKENLTAQEMETELMQFAGRPEHQSSDSTFLVFMSHGILEGICGVKHRNKKPDVLHDDTIFKIFNNSNCRSLRNKPKILIMQACRGRYNGTIWVSTNKGIATADTDEERVLSCKWNNSITKAHVETDFIAFKSSTPHNISWKVGKTGSLFISKLIDCFKKYCWCYHLEEIFRKVQHSFEVPGELTQMPTIERVSMTRYFYLFPGN
Q: How did the “cleavage of radioactively labeled pro-caspase-12 by mature caspase-12 (SDS-PAGE, autoradiography)” value turn out when B1 was run?
A: Its value is “Addition of 12 µg of MAGE-3 inhibited the cleavage reaction by caspase-12 almost completely”.

— patent US20020164738
